Patent publication US20130260455A1 (ONCOMED PHARMACEUTICALS, published 2013)

Key:
[1] = molecular target: T1, recombinant mouse Notch2 (EGF10-15) (mouse, UniProt O35516 375-605); test: Biacore SPR
T1 construct: domain: EGF10-15; also called mNotch2; m-Notch2
T1 sequence (looked up): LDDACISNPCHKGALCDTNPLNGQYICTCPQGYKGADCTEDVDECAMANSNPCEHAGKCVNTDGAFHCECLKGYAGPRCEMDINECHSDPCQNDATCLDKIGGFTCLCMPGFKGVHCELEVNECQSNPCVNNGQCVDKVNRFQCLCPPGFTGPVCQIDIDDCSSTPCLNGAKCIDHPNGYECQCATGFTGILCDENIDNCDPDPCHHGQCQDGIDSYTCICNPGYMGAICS

[2] = molecular target: T2, human Notch4, full length, on transfected cells (human, UniProt Q99466 24-2003); test: FACS on HEK-293 cells transiently transfected with hNotch4 and GFP
T2 construct: also called hNotch4
Experimental: The ability of the 59R1 IgG2 antibody to cross-react with other Notch receptors was determined by FACS assay using HEK-293 cells transiently transfected with the human Notch1, Notch2. Notch3 or Notch4 expression plasmid and green fluorescent protein (GFP) as a transfection control. GFP positive cells indicated expression of the transgene. The 59R1 IgG2 was added to the cells at 2 μg/ml and detected by PE-conjugated goat anti-human Fc gamma specific (Jackson Immunochemicals). All Notch constructs were full length.

[3] = molecular target: T1, recombinant mouse Notch2 (EGF10-15); test: Biacore 2000 SPR; Notch protein amine-coupled to CM5 chip, antibody 1-100 nM injected
Experimental: (§1) The affinities for human and mouse Notch1, Notch2, Notch3, and Notch4 were determined using a Biacore 2000 instrument. Briefly, recombinant human and mouse Notch proteins (EGF10-15 for Notch1, 2, & 4; EGF9-14 for Notch3) were immobilized on a CM5 chip using standard amine based chemistry (NHS/EDC). For hNotch2. EGF1-12 was also tested for binding. Different antibody concentrations (1-100 nM) were injected over the protein surfaces and kinetic data were collected over time. The data was fit using the simultaneous global fit equation to yield dissociation constants (KD, nM) for each Notch (Table 3).

[4] = molecular target: T3, recombinant human Notch2 (EGF1-12) (human, UniProt Q04721 26-493); test: as above
T3 construct: also called hNotch2 *N2(EGF1-12)
T3 sequence: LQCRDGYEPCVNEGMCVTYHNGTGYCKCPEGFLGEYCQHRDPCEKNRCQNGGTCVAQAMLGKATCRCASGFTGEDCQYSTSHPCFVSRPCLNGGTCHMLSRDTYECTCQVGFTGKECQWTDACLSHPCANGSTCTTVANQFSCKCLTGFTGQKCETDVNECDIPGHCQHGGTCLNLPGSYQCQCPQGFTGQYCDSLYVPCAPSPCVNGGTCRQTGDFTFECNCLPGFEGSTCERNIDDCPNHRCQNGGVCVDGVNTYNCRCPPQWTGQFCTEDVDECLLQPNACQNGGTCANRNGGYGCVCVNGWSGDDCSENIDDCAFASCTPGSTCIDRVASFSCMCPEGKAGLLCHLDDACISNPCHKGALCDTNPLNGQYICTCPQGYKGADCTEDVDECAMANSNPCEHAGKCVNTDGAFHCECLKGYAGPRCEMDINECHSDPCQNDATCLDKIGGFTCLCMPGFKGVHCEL
Experimental: as §1

[5] = molecular target: T4, recombinant human Notch2 (EGF10-15) (human, UniProt Q04721 375-605); test: as above
T4 construct: The whole entry for hNotch2 is named here; also called hNotch2 **N2(EGF 10-155)
T4 sequence: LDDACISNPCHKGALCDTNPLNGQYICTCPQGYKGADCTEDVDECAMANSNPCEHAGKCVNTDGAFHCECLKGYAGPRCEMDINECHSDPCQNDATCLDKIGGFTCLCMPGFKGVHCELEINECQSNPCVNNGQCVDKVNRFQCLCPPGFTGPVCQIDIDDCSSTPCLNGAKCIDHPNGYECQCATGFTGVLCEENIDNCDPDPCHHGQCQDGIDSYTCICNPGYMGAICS
Experimental: as §1

[6] = molecular target: T5, recombinant mouse Notch3 (EGF9-14) (mouse, UniProt Q61982 352-581); test: as above
T5 construct: domain: EGF9-14; also called mNotch3; m-Notch3
T5 sequence (looked up): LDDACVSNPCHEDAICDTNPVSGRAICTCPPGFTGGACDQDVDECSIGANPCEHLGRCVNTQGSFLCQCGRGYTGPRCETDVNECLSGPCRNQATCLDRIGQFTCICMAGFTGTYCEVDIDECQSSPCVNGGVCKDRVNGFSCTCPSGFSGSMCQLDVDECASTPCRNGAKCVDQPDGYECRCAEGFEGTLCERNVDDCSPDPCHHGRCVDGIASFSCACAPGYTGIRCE
Experimental: as §1

[7] = molecular target: T6, recombinant human Notch3 (EGF9-14) (human, UniProt Q9UM47 351-580); test: as above
T6 construct: The whole entry for hNotch3 is named here; also called hNotch3; h-Notch3
T6 sequence: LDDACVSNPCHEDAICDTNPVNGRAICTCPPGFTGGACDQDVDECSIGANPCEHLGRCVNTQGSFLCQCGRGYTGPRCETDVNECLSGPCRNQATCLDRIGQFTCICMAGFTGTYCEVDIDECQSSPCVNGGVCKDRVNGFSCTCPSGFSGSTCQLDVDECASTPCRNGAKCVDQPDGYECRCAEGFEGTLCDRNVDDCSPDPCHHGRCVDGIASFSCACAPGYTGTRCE
Experimental: as §1

[8] = molecular target: T7, mutant hNotch2 missing amino acids 375-412 (EGF repeat 10 deleted), on transfected cells (human, UniProt Q04721 26-2471); test: FACS on HEK-293 cells transiently transfected with human Notch2 Δaa 375-412 (EGF 10) and GFP
T7 construct: also called hNotch2 in the absence of EGF10
Experimental: FACS analysis of HEK-293 cells transiently transfected with the indicated Notch expression plasmid and GFP as a transfection control. GFP positive cells indicate expression of the transgene. Anti-Notch2 (59M70) was added at 20 μg/ml and detected by PE-conjugated goat anti-mouse (Caltag, #3004-4). 59R1 (IgG2) was added to the cells at 2 μg/ml and detected by PE-conjugated goat anti-human Fc gamma specific (Jackson Immunochemicals). Ligand binding was determined by incubation of the cells with human DLL4 extracellular domain (ECD) fused to rabbit IgG constant region at 5 μg/ml and detected by PE-conjugated donkey anti-rabbit.

T2 sequence (Q99466 24-2003 limits assumed): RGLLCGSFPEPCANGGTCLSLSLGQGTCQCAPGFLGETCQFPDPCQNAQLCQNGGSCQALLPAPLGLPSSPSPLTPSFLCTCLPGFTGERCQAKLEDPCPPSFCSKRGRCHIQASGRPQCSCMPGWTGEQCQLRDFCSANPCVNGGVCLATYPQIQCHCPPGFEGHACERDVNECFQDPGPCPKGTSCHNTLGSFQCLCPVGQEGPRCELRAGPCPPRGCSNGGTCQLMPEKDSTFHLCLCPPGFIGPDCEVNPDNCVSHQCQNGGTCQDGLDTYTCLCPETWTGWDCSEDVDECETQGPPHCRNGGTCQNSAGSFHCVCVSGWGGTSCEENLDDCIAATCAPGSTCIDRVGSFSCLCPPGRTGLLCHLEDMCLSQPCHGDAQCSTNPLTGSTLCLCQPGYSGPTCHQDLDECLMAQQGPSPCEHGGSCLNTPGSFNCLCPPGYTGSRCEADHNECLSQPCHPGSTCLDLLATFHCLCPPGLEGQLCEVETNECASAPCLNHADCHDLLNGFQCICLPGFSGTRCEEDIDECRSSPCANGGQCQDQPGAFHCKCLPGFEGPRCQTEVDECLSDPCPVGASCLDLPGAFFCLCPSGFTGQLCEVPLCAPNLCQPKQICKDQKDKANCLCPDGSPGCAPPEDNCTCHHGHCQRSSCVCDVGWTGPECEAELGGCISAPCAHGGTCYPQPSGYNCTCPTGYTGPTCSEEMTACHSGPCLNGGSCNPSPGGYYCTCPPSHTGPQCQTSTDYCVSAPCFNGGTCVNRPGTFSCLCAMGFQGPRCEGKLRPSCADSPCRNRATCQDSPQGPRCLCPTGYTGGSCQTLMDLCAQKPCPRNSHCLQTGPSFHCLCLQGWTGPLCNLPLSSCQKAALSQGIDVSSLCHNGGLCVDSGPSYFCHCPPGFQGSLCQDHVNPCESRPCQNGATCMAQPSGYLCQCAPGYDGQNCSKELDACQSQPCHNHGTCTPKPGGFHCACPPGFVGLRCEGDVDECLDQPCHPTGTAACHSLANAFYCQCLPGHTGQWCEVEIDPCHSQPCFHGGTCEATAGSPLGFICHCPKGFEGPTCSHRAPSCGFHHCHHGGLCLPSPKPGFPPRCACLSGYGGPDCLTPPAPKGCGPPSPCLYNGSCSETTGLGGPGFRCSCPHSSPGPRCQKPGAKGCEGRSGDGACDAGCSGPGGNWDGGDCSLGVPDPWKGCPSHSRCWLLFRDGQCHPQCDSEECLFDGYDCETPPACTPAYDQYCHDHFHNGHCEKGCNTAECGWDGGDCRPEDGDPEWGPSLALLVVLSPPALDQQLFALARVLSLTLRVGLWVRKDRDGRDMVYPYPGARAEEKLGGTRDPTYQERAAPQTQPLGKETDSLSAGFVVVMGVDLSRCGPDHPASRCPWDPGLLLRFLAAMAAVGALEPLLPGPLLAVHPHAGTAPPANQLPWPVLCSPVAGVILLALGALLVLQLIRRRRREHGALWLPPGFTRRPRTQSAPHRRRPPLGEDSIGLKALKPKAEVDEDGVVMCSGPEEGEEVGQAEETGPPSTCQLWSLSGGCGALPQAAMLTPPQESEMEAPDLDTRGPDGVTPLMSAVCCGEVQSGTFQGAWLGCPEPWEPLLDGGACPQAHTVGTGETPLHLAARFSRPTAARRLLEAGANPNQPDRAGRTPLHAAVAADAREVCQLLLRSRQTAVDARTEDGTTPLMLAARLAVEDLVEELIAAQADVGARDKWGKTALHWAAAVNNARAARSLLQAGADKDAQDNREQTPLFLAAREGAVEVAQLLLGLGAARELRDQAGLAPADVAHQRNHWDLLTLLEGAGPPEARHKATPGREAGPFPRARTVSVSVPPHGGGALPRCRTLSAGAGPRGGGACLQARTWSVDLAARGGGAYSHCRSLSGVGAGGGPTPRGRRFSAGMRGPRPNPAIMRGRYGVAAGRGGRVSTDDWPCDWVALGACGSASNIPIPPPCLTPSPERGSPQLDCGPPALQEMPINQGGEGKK

Kd [1]: 0.65 nM | binding result [2]: no binding (tested: 2 ug/ml) | Kd [3]: 0.35 nM | Kd [4]: < 0.1 nM | Kd [5]: < 0.1 nM | Kd [6]: 0.13 nM | Kd [7]: 0.12 nM | binding result [8]: no binding (tested: 2 ug/ml)
B1: 59R1 IgG2 antibody (antibody, V domains shown)
VH: QVQLVESGGGLVQPGGSLRLSCAASGFTFSSSGMSWVRQAPGKGLEWVSVIASSGSNTYYADSVKGRFTISRDNSKNTLYLQMNSLRAEDTAVYYCARGIFFAIWGQGTLVTVSS
VL: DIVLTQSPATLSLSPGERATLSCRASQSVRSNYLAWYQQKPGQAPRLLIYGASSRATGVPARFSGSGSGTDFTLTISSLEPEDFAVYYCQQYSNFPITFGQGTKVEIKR
notes: Human IgG2/kappa made in CHO cells; also called anti-Notch2/3 antibody 59R1
